Where a chain is given by its changes, count along the chain named.
T1: ZM6.3(G4) (artificial)
T1 chain: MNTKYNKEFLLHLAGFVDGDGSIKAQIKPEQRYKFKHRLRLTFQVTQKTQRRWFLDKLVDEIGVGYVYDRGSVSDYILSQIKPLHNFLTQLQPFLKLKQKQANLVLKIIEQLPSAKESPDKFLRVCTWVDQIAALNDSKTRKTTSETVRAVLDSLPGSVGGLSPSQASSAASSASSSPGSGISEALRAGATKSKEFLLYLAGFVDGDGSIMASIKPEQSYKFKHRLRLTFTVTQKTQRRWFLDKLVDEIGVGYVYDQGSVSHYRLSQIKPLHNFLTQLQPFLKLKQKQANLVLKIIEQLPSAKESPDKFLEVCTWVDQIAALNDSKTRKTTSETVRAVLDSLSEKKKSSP

T2: ZM6.3(G3) (artificial)
T2 chain: T1 chain with H12Y, R32S, Q50R, F54I, R124E

T3: ZM6.3(H3) (artificial)
T3 chain: T1 chain with R32S, Q50R, R124E, E311R

T4: ZM6.22v2(J2) (artificial)
T4 chain: T1 chain with E30Q, R32S, Y33C, R38A, Q80E, M211I, E217N, S219C, R225Q, R227S

T5: ZM6.22v2(I3) (artificial)
T5 chain: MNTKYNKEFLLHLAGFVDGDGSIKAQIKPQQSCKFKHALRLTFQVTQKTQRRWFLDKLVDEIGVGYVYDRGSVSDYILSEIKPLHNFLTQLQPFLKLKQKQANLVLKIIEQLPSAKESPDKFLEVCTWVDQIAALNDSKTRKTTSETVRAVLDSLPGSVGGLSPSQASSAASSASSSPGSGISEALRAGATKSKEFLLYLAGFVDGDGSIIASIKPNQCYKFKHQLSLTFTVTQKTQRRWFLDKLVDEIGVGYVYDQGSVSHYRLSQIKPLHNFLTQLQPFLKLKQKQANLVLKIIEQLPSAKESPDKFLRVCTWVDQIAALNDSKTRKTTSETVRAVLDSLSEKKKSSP

B1: ZM6.3 recognition site (dsDNA)
DNA 1: CAGGCTCTCGTAAATGCGCCTG
DNA 2: CAGGCGCATTTACGAGAGCCTG
B2: ZM6.22v2 recognition site (dsDNA)
DNA 1: ATTGCTCTCTCACATACTTTTA
DNA 2: TAAAAGTATGTGAGAGAGCAAT

Experiments:
Settings in all cases: tags: NLS, 6xHis
ZM6.3(G4) = molecular target: T1, ZM6.3(G4); assay: cell_activity; yeast 37 C; 28 C: 2
Experimental: (§1) A 3 mL culture of selective media (MP Biomedical) was inoculated with a single colony of the yeast screening strain and grown at 30° C. overnight. On the following day, a 50 ml YPD culture (MP Biomedical) was started with 2 ml of the overnight culture and grown at 30° C. overnight. On the following day, the cells were harvested by centrifugation at 4000 rpm. The cells were resuspended in 100 ml ice cold water and centrifuged again. The cells were then washed in 1.2 M sorbitol, followed by treatment with 2 ml of 10 mM Tris pH 8.0, 1 mM EDTA, 100 mM Lithium acetate, 10 mM DTT, 0.6M sorbitol for 30 minutes at 30° C. with shaking. The cells were recovered by centrifugation, washed in 40 ml 1.2M sorbitol and finally resuspended in 250 microliters of 1.2M sorbitol. 50 microliter aliquots were transferred to test tubes on ice. Up to 5 microliters of DNA (100-500 nanograms) were added. The suspension was transferred to a 0.2 cm electroporation cuvette, on ice. Electroporation was performed with a pulse charge at 1.5 kV, 200 ohms, 25 microF (pulse time of 5 milliseconds). 1 mL YPD media (MP Biomedical) was added and the cells were allowed to recover at 30° C. for 1-2 hr. The cells were centrifuged, resuspended in 100 uL 1M sorbitol and plated on selective media lacking leucine and containing 2% galactose. The resulting yeast colonies were incubated at various temperatures ranging from 22 to 37 degrees Celsius for 7-10 days. I-CreI and meganucleases derived from it have maximal activity at or above 37 degrees Celsius. Screening was performed at a range of temperatures from 22 to 37 degrees in order to observe increases in activity at lower temperatures which are relevant to certain biological systems (eg. plant cells, plant cell cultures, etc). At that time the red/white sectoring phenotype, indicative of meganuclease activity was observed. Colonies with increased white sectoring over the parental meganuclease (indicating colonies expressing a meganuclease with increased meganuclease activity), also referred to as “hits” and sometimes completely white, were isolated for further analysis.
(§2) A total of 15 Zm6.3 variants with increased activity were confirmed in the yeast system (as described in Example 6). Increased activity was observed across a range of temperatures: 28 degrees Celsius, 30 degrees Celsius and 37 degrees Celsius, as shown in Table 15.

ZM6.3(G3) = molecular target: T2, ZM6.3(G3); assay: cell_activity; yeast 37 C; 28 C: 2
Experimental: as §1, §2

ZM6.3(H3) = molecular target: T3, ZM6.3(H3); assay: cell_activity; yeast 37 C; 28 C: 2
Experimental: as §1, §2

ZM6.22v2(J2) = molecular target: T4, ZM6.22v2(J2); assay: cell_activity; yeast 37 C; 30 C: 0
Experimental: as §1
(§3) A total of 13 ZM6.22v2 variants with increased activity were confirmed in the yeast system (as described in Example 6). Increased activity was observed across a range of temperatures: 28 degrees Celsius, 30 degrees Celsius and 37 degrees Celsius, as shown in Table 16.

ZM6.22v2(I3) = molecular target: T5, ZM6.22v2(I3); assay: cell_activity; yeast 37 C; 30 C: 0
Experimental: as §1, §3

Row | Binder | activity (ZM6.3(G4)) [score 0-4] | activity (ZM6.3(G3)) [score 0-4] | activity (ZM6.3(H3)) [score 0-4] | activity (ZM6.22v2(J2)) [score 0-4] | activity (ZM6.22v2(I3)) [score 0-4]
1 | B1 | 4 | 4 | 4 |  | 
2 | B2 |  |  |  | 2 | 2
